{
  "source": "patent US20230250154A1",
  "about": "(CYTONICS, published 2023)",
  "binders": {"B1": {"name": "Variant A2M, bait region SEQ ID NO 136 (other)", "chain": "SVSGKPQYMVLVPSLLHTETTEKGCVLLSYLNETVTVSASLESVRGNRSLFTDLEAENDVLHCVAFAVPKSSSNEEVMFLTVQVKGPTQEFKKRTTVMVKNEDSLVFVQTDKSIYKPGQTVKFRVVSMDENFHPLNELIPLVYIQDPKGNRIAQWQSFQLEGGLKQFSFPLSSEPFQGSYKVVVQKKSGGRTEHPFTVEEFVLPKFEVQVTVPKIITILEEEMNVSVCGLYTYGKPVPGHVTVSICRKYSDASDCHGEDSQAFCEKFSGQLNSHGCFYQQVKTKVFQLKRKEYEMKLHTEAQIQEEGTVVELTGRQSSEITRTITKLSFVKVDSHFRQGIPFFGQVRLVDGKGVPIPNKVIFIRGNEANYYSNATTDEHGLVQFSINTTNVMGTSLTVRVNYKDRSPCYGYQWVSEEHEEAHHTAYLVFSPSKSFVHLEPMSHELPCGHTQTVQAHYILNGGTLLGLKKLSFYYLIMAKGGIVRTGTHGLLVKQEDMKGHFSISIPVKSDIAPVARLLIYAVLPTGDVIGDSAKYDVENCLANKVDLSFSPSQSLPASHAHLRVTAAPQSVCALRAVDQSVLLMKPDAELSASSVYNLLPEKDLTGFPGPLNDQDDEDCINRHNVYINGITYTPVSSTNEKDMYSFLEDMGLKAFTNSKIRKPKMCPQLEQYEMHGPKEEEGLGSIPENFFGVSELEGRGSEGEGEGEGVEEPHTKLRKYFPETWIWDLVVVNSAGVAEVGVTVPDTITEWKAGAFCLSEDAGLGISSTASLRAFQPFFVELTMPYSVIRGEAFTLKATVLNYLPKCIRVSVQLEASPAFLAVPVEKEQAPHCICANGRQTVSWAVTPKSLGNVNFTVSAEALESQELCGTEVPSVPEHGRKDTVIKPLLVEPEGLEKETTFNSLLCPSGGEVSEELSLKLPPNVVEESARASVSVLGDILGSAMQNTQNLLQMPYGCGEQNMVLFAPNIYVLDYLNETQQLTPEIKSKAIGYLNTGYQRQLNYKHYDGSYSTFGERYGRNQGNTWLTAFVLKTFAQARAYIFIDEAHITQALIWLSQRQKDNGCFRSSGSLLNNAIKGGVEDEVTLSAYITIALLEIPLTVTHPVVRNALFCLESAWKTAQEGDHGSHVYTKALLAYAFALAGNQDKRKEVLKSLNEEAVKKDNSVHWERPQKPKAPVGHFYEPQAPSAEVEMTSYVLLAYLTAQPAPTSEDLTSATNIVKWITKQQNAQGGFSSTQDTVVALHALSKYGAATFTRTGKAAQVTIQSSGTFSSKFQVDNNNRLLLQQVSLPELPGEYSMKVTGEGCVYLQTSLKYNILPEKEEFPFALGVQTLPQTCDEPKAHTSFQISLSVSYTGSRSASNMAIVDVKMVSGFIPLKPTVKMLERSNHVSRTEVSSNHVLIYLDKVSNQTLSLFFTVLQDVPVRDLKPAIVKVYDYYETDEFAIAEYNAPCSKDLGNADYKDDDDKGASHHHHHH"}},
  "test_in_all_cases": "cell-based or functional assay",
  "key": {"ADAMTS5": {"target": "T1, ADAMTS5 (human, UniProt Q9UNA0 262-622, limits assumed)", "T1 sequence (looked up)": "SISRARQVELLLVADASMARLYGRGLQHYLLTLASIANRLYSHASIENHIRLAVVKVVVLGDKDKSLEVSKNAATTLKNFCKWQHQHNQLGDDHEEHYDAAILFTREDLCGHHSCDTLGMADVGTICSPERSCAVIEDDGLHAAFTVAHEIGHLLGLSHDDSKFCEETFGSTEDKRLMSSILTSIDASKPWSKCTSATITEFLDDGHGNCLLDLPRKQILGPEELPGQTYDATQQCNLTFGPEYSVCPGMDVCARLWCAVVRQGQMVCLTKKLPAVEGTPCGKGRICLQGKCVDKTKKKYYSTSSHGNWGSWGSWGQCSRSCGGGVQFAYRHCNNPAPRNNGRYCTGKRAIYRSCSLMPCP"}, "MMP8": {"target": "MMP8 (human, UniProt P22894 101-467, limits assumed)", "sequence (P22894 101-467 limits assumed)": "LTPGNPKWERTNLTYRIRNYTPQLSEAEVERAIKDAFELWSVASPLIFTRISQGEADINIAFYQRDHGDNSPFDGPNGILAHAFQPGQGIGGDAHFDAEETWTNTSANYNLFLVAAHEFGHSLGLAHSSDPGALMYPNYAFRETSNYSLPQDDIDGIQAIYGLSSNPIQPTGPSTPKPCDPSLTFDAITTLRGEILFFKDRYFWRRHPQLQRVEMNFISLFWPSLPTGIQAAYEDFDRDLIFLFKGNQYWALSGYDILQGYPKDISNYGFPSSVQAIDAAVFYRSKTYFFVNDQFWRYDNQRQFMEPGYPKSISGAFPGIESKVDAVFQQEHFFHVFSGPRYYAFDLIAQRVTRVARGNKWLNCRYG"}, "MMP9": {"target": "MMP9 (human, UniProt P14780 107-707, limits assumed)", "sequence (P14780 107-707 limits assumed)": "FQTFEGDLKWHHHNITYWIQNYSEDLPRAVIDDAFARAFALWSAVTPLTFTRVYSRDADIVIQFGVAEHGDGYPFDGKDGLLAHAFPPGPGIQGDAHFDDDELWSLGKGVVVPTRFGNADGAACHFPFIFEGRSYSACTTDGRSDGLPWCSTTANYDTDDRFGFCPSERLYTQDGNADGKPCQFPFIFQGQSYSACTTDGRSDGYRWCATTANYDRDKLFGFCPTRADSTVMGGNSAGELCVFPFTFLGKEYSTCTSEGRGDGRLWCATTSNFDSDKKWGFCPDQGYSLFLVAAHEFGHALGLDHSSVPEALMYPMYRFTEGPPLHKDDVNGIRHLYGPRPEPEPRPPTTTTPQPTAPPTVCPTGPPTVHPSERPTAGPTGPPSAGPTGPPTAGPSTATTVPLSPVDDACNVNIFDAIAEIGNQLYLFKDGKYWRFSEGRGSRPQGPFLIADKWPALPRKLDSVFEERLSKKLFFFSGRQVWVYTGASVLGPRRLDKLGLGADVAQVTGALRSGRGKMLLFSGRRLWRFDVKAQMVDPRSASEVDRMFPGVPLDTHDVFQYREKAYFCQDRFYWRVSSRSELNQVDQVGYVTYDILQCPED"}, "MMP2": {"target": "T2, MMP2 (human, UniProt P08253 110-660, limits assumed)", "T2 sequence (looked up)": "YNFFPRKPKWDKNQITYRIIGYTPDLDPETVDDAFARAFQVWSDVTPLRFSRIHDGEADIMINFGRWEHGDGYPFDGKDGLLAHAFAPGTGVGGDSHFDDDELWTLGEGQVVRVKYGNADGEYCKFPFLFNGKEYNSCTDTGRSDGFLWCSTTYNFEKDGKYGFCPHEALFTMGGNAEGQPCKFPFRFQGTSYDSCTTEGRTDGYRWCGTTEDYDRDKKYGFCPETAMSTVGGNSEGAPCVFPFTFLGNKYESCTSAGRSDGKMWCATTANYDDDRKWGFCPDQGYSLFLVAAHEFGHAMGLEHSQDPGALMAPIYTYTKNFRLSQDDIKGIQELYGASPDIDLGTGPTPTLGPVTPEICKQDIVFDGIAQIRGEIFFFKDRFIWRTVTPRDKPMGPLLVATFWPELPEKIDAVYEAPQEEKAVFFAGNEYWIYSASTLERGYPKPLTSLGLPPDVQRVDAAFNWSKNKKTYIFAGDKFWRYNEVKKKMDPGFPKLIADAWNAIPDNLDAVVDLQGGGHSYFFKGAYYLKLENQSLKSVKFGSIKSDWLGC"}, "MMP12": {"target": "MMP12 (human, UniProt P39900 106-470, limits assumed)", "sequence (P39900 106-470 limits assumed)": "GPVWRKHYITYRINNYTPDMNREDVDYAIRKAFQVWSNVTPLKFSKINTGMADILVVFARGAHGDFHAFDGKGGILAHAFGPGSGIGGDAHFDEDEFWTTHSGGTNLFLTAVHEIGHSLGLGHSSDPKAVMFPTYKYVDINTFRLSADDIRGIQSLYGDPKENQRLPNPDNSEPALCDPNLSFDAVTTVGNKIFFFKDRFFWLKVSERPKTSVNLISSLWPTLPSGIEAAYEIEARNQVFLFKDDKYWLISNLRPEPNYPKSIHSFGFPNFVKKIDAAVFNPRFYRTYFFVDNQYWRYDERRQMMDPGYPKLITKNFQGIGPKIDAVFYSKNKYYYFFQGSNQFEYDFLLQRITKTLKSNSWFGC"}, "MMP3": {"target": "MMP3 (human, UniProt P08254 100-477, limits assumed)", "sequence (P08254 100-477 limits assumed)": "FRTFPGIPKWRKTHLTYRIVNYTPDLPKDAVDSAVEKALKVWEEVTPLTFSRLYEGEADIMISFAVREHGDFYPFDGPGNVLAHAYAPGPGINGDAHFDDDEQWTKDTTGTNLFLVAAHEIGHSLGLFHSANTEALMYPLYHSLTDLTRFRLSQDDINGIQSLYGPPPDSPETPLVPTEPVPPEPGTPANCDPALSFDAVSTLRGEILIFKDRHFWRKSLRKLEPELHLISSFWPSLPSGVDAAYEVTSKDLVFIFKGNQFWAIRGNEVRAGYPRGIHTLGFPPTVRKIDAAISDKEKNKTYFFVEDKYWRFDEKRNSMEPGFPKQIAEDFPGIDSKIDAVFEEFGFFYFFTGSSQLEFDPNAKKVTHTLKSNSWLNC"}, "ADAMTS4": {"target": "T3, ADAMTS4 (human, UniProt O75173 213-685, limits assumed)", "T3 sequence (looked up)": "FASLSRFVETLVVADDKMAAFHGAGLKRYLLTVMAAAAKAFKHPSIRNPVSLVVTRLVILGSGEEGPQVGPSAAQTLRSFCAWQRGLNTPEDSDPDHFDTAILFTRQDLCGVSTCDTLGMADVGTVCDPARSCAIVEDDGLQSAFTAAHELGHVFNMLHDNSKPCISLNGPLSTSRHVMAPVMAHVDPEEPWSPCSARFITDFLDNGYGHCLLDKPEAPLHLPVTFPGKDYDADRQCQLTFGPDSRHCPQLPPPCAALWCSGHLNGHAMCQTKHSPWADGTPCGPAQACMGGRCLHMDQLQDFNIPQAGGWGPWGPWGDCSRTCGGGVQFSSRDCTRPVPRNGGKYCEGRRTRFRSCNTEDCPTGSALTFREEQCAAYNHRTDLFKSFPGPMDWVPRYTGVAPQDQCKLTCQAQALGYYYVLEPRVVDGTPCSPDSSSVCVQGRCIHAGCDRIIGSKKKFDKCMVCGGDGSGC"}, "MMP1": {"target": "T4, MMP1 (human, UniProt P03956 100-469, limits assumed)", "T4 sequence (looked up)": "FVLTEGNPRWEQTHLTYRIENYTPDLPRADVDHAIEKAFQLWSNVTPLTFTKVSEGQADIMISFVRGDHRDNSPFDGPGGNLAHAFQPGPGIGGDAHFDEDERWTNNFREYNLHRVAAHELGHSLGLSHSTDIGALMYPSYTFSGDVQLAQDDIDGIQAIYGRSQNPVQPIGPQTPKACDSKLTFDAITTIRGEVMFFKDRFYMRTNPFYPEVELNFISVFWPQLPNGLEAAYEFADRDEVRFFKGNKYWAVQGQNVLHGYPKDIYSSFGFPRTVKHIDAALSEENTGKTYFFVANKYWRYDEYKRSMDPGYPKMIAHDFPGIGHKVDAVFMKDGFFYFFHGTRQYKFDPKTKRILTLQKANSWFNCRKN"}, "MMP13": {"target": "MMP13 (human, UniProt P45452 104-471, limits assumed)"}, "Elastase": {"target": "Elastase"}, "chymotrypsin": {"target": "chymotrypsin"}, "bovine trypsin": {"target": "bovine trypsin (bovine, UniProt P00760 24-246)", "sequence (P00760 24-246)": "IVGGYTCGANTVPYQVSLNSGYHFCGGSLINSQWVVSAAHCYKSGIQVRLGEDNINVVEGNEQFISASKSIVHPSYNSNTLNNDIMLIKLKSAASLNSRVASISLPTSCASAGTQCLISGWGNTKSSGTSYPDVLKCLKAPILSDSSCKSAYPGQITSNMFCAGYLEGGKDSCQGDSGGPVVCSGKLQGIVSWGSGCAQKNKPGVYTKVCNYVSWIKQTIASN"}, "Cathepsin G": {"target": "T5, Cathepsin G (UniProt P08311 21-244)", "T5 sequence (looked up)": "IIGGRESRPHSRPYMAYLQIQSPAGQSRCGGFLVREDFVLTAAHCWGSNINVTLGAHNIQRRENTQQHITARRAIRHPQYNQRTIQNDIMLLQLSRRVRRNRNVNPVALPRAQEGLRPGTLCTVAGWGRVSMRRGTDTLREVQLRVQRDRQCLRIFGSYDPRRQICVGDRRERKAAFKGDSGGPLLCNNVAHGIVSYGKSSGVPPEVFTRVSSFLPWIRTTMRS"}},
  "data": [
    {"binder": "B1", "values": [
      {"measurement": "Protease Inhibition (% of WT)", "setting": "ADAMTS5", "result": "373 % of WT"},
      {"measurement": "Protease Inhibition (% of WT)", "setting": "MMP8", "result": "133 % of WT"},
      {"measurement": "Protease Inhibition (% of WT)", "setting": "MMP9", "result": "500 % of WT"},
      {"measurement": "Protease Inhibition (% of WT)", "setting": "MMP2", "result": "47 % of WT"},
      {"measurement": "Protease Inhibition (% of WT)", "setting": "MMP12", "result": "150 % of WT"},
      {"measurement": "Protease Inhibition (% of WT)", "setting": "MMP3", "result": "130 % of WT"},
      {"measurement": "Protease Inhibition (% of WT)", "setting": "ADAMTS4", "result": "80 % of WT"},
      {"measurement": "Protease Inhibition (% of WT)", "setting": "MMP1", "result": "370 % of WT"},
      {"measurement": "Protease Inhibition (% of WT)", "setting": "MMP13", "result": "113 % of WT"},
      {"measurement": "Protease Inhibition (% of WT)", "setting": "Elastase", "result": "250 % of WT"},
      {"measurement": "Protease Inhibition (% of WT)", "setting": "chymotrypsin", "result": "25 % of WT"},
      {"measurement": "Protease Inhibition (% of WT)", "setting": "bovine trypsin", "result": "221 % of WT"},
      {"measurement": "Protease Inhibition (% of WT)", "setting": "Cathepsin G", "result": "376 % of WT"}
    ]}
  ]
}
